Test [1] has as its target T1, human c-Met, membrane-bound on cells (human, UniProt P08581 25-1390). Description: cell-based or functional assay.
Test [2] deals with T1, human c-Met, membrane-bound on cells. Nature of the test: flow cytometry on A431 cells. On the procedure:
(§1) The binding of anti-c-Met antibodies and monovalent forms thereof (also termed “UniBody molecules” herein, see Example 5) to A431 cells expressing membrane-bound c-Met (purchased at ATCC, CRL-1555) was tested using flow cytometry (FACS Canto II, BD Biosciences). […] Binding of anti-c-Met antibodies and UniBody molecules was detected using a Phycoerythrin-conjugated goat-anti-human IgG antibody (Jackson). IgG1-5D5 was used as positive control antibody, and HuMab-KLH was used as isotype control antibody. EC₅₀ values were determined by means of non-linear regression (sigmoidal dose-response with variable slope) using GraphPad Prism V4.03 software (GraphPad Software, San Diego, Calif., USA).
(§2) Also maximum binding levels were unchanged between IgG1's and UniBody molecules. For antibodies 005, 006, 008, 035, 045 and 058, on the other hand, a more than 2-fold […] as well as a decrease in maximum binding level was observed when comparing IgG1 with their UniBody counterpart. This was most likely due to the […] (Kd) of these antibodies (see Example 14).
A general note: In flow cytometry, cells or beads pass a laser one at a time.

The target is the same in test [3]. Nature of the test: flow cytometry on A431 cells (PE goat anti-human IgG); second panel. How it is done:
as §1, §2

Test [4] shares this target. Description: flow cytometry on A431 cells (PE goat anti-human IgG); top panel. How it is done:
as §1, §2

Data on four molecules can be found in US20150329642A1 (Genmab, published 2015).

T1 sequence (P08581 25-1390): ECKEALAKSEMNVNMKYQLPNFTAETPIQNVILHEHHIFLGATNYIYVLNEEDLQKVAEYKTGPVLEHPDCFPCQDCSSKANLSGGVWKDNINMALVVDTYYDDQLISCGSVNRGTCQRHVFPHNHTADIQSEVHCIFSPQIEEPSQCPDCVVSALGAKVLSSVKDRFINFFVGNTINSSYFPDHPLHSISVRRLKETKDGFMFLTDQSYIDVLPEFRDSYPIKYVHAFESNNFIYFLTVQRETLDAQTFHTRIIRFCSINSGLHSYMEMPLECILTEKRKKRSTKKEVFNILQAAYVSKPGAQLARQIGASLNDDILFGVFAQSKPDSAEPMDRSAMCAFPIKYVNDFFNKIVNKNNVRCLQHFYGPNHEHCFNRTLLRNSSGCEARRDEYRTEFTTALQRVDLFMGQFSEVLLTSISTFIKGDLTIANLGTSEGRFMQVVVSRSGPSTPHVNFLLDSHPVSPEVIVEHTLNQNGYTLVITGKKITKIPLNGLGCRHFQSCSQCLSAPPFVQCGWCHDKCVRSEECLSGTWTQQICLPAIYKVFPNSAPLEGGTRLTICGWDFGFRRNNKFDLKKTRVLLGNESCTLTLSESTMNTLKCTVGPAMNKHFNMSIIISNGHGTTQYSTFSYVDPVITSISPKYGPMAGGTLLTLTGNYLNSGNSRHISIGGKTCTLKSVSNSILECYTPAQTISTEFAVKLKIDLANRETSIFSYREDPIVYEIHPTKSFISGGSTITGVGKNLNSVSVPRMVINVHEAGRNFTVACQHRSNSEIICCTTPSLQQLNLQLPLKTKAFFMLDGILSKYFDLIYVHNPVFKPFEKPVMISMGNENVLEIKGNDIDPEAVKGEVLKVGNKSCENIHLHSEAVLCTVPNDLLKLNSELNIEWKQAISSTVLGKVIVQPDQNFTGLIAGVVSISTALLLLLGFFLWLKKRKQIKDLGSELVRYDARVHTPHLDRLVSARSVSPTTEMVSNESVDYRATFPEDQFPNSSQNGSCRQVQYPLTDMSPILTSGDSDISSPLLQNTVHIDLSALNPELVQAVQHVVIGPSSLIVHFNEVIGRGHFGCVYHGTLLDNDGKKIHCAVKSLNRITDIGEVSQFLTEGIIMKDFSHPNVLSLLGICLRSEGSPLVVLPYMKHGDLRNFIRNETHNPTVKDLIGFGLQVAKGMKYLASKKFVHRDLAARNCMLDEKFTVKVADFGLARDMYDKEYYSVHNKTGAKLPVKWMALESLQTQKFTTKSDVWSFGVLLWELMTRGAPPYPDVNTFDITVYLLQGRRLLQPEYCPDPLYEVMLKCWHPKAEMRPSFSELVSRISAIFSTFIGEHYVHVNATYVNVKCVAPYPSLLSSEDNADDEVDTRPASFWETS

B1: Uni-1016-022-TE (other)
VH: QVQLVESGGGVVQPGRSLRLSCAASGFTFSSYAMHWVRQAPGKGLEWVAVISYDGSNKYYADSVKGRFTISRDNSKNTLYLQMNSLRAEDTAVYYCARELLWFGELWGYFDLWGRGTLVTVSS
VL: DIQMTQSPSSVSASVGDRVTITCRASQGISSWLAWYQHKPGKAPKLLIYAASSLQSGVPSRFSGSGSGTDFTLTISSLQPEDFATYYCQEASSFTWTFGQGTKVEIK
notes: also called UniBody molecule of antibody 022
Consider B1, for which the “percentage inhibition of viable KP4 cells (Alamarblue)” value in test [1] is 57%. The “fold change of EC50, UniBody molecule against IgG1 of the identical clone” value (“fold change of EC50, UniBody molecule” for short) in test [2] was under 2 fold. Besides, the EC50 (usually the concentration giving half of the maximal effect) in test [3] was determined as 1.66 nM.

B2: Uni-1016-006 (other)
VH: QVQLVQSGAEVKKPGSSVKVSCKASGGTFSSFGIGWVRQAPGQGLEWMGRIFPILGTANYAQMFQGRVTITADKSTSTAYMELTSLRSEDTAVYYCARDVGYDSADAFDIWGQGTMVTVSS
VL: DIQMTQSPSSLSASVGDRVTITCRASQGISSWLAWYQQKPEKAPKSLIYAASSLQSGVPSRFSGSGSGTDFTLTISSLQPEDFATYYCQQYNSYPPTFGQGTKVEIK
notes: also called UniBody molecule of antibody 006
Consider B2, for which, in test [2], the “fold change of EC50, UniBody molecule” value was over 2 fold. Moreover, the results for the EC50 in test [4] and in test [3] were 0.323 nM and 13.9 nM, respectively.

B3: Uni-1016-058-TE (other)
VH: EVQLVESGGGLVKPGGSLKLSCAASGFTFSDYYMYWVRQTPEKRLEWVATISDDGSYTYYPDSVKGRFTISRDNAKNNLYLQMSSLKSEDTAMYYCAREGLYYYGSGSYYNQDYWGQGTLVTVSS
VL: AIQLTQSPSSLSASVGDRVTITCRASQGLSSALAWYRQKPGKAPKLLIYDASSLESGVPSRFSGSGSGTDFTLTISSLQPEDFATYYCQQFTSYPQITFGQGTRLEIK
notes: also called UniBody molecule of antibody 058
Regarding B3, in test [2], the “fold change of EC50, UniBody molecule” value was over 2 fold. Also, the midpoint of the response in test [4], the EC50, lay at 0.67 nM.

B4: IgG4-058 (antibody, V domains shown)
VH: EVQLVESGGGLVKPGGSLKLSCAASGFTFSDYYMYWVRQTPEKRLEWVATISDDGSYTYYPDSVKGRFTISRDNAKNNLYLQMSSLKSEDTAMYYCAREGLYYYGSGSYYNQDYWGQGTLVTVSS
VL: AIQLTQSPSSLSASVGDRVTITCRASQGLSSALAWYRQKPGKAPKLLIYDASSLESGVPSRFSGSGSGTDFTLTISSLQPEDFATYYCQQFTSYPQITFGQGTRLEIK
notes: IgG4 format of clone 058; also called IgG4-1016-058
As for B4, the EC50 in test [4] worked out at 0.276 nM.
